Data on one molecule can be found in article PMC7159914.

For the series, the target named is VP3 (capping enzyme) (Rotavirus A, UniProt Q1WK45 1-835). Kind of series: BLI. (Biolayer interferometry detects binding as a change in optical thickness at a sensor tip.)

As to GGCUUUUA (ssRNA) [biotinylated 8-mer ssRNA], the binding result is listed as “binds”.
